In patent US11053313B2, “Anti-CLDN-5 antibody, and drug containing said antibody” (OSAKA UNIVERSITY, priority 2017, dated 2021):

T1: 5-5-1 (Homo sapiens, UniProt O00501, A162Q/K157R/L160F/Q156A/S151M/S155N/V152T)
T1 construct: expressed in transfected cells; host or cells: retrovirus-infected cells (pCX4pur)
T1 sequence (O00501 1-218 S151M/V152T/S155N/Q156A/K157R/L160F/A162Q): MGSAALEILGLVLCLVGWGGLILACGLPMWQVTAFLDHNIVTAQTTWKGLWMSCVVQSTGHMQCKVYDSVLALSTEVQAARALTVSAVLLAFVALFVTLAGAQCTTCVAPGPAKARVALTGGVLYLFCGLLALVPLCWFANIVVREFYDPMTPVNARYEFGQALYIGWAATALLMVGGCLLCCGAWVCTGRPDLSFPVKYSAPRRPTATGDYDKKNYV

T2: 1-1-5 (Homo sapiens, UniProt O00501, A34S/A72N/D37G/E76T/F35Y/G26A/H38D/H61Q/K48E/L36A/M29Q/M62I/Q31R/T33Y/T45A/T46M/T75S/V32I/V56S/V70L/W47Y/Y67F)
T2 construct: expressed in transfected cells; host or cells: retrovirus-infected cells (pCX4pur)
T2 sequence (O00501 1-218 G26A/M29Q/Q31R/V32I/T33Y/A34S/F35Y/L36A/D37G/H38D/T45A/T46M/W47Y/K48E/V56S/H61Q/M62I/Y67F/V70L/A72N/T75S/E76T): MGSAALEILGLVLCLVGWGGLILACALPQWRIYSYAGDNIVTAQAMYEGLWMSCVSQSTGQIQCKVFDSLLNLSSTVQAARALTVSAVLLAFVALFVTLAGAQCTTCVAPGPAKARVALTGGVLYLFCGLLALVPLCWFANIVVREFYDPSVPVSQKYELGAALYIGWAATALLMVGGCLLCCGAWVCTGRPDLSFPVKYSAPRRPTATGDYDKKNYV

T3: 1-5-5 (Homo sapiens, UniProt O00501, A34S/D37G/F35Y/G26A/H38D/K48E/L36A/M29Q/Q31R/T33Y/T45A/T46M/V32I/W47Y)
T3 construct: expressed in transfected cells; host or cells: retrovirus-infected cells (pCX4pur)
T3 sequence (O00501 1-218 G26A/M29Q/Q31R/V32I/T33Y/A34S/F35Y/L36A/D37G/H38D/T45A/T46M/W47Y/K48E): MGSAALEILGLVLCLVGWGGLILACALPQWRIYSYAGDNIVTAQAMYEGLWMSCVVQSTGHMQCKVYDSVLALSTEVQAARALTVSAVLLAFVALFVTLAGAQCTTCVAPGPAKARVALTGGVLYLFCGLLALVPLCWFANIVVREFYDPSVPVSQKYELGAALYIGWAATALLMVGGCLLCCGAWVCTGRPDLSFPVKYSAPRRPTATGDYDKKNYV


Assays:
5-5-1 = target: T1, 5-5-1; experiment: Epitope analysis FACS, chimeric protein 5-5-1; format: binding; conditions: antibody concentration 5 μg/mL; second extracellular loop substituted with hCLDN-1
hCLDN-5 [1] = experiment: Epitope analysis by hCLDN-5/hCLDN-1 chimeric CLDN (FACS), loop assignment; format: binding, human; conditions: antibody concentration 5 μg/mL, hCLDN-5/hCLDN-1 chimeras
hCLDN-5 [2] = experiment: Epitope analysis by hCLDN-5/mCLDN-5 chimeric CLDN (D68E, T75A, S151T, TM; FACS); format: binding, human; conditions: antibody concentration 5 μg/mL, mutants D68E
1-1-5 = target: T2, 1-1-5; experiment: Epitope analysis FACS, chimeric protein 1-1-5; format: binding; conditions: antibody concentration 5 μg/mL; first extracellular loop substituted with hCLDN-1
1-5-5 = target: T3, 1-5-5; experiment: Epitope analysis FACS, chimeric protein 1-5-5; format: binding; conditions: antibody concentration 5 μg/mL; N-terminal half of first extracellular loop substituted with hCLDN-1

| Molecule | recognition of 5-5-1 (5-5-1) | extracellular loop of CLDN-5 recognized (hCLDN-5 [1]) | portion of hCLDN-5 recognized (hCLDN-5 [2]) | recognition of 1-1-5 (1-1-5) | recognition of 1-5-5 (1-5-5) |
| --- | --- | --- | --- | --- | --- |
| M23: mouse anti-CLDN-5 monoclonal antibody, IgG2b/K; VH SEQ ID NO: 5, VL SEQ ID NO: 6; example of antibody C (antibody, V domains shown, M23 VH; M23 VL) VH: EVQLQQSGPVLVKPGPSVMISCKASGFTFTDYYMHWVKQSHGKSLEWIGLVYPYNGGTDYNQKFKGKATLTVDTSSSTAYMELNSLTSEDSAVYYCARCLYDGLYFYAMDYWGQGTSVTVSS VL: DIVMSQSPSSLAVSAGEKVTMTCKSSQSLLNSRARKNYLAWYQQKAGQSPKLLMYWASTRESGVPDRFTASGSGTDFTLTISSVQAEDLAVFYCKQSYNLPWTFGGGTKLEIKR | incapable of recognizing | second extracellular loop | domain around the 151st amino acid from the N-terminal present in the second extracellular loop | capable of recognizing |  |
| R3: rat anti-CLDN-5 monoclonal antibody, IgG2a/K; VH SEQ ID NO: 13, VL SEQ ID NO: 14; example of antibody G (antibody, V domains shown, R3 VH; R3 VL) VH: EVQLVESGGGLVQPGRSLKLSCAASGFTFSDYYMAWVRQAPKKGLEWVASISYEGRNTYYGDSVKGRFTISRDNAKSTLYLQMKSLRSEDTATYYCTRHPRRYFDYWGQGVMVTVSS VL: DIVMTQSPSSLAVSAGETVTMNCRSSQSLFSSGDQKKFLAWYQQKPGQSPKLLISLASTRESGVPDRFIGSGSGTDFTLTINNMQAEDLAIYYCQQHYDIPYTFGAGTKLEL | incapable of recognizing | second extracellular loop | domain around the 151st amino acid from the N-terminal present in the second extracellular loop | capable of recognizing |  |
| R2: rat anti-CLDN-5 monoclonal antibody, IgG2a/K; VH SEQ ID NO: 11, VL SEQ ID NO: 12; example of antibody F (antibody, V domains shown, R2 VH; R2 VL) VH: QVQLKESGPGLVQPSQTLSLTCTVSGLSLIRNSVSWIRQPPGKGLEWMGVIWSNGGTEYNSTVKSRLSISRDTSKNQVFLKMNSLQTEDSAMFFCARTPDGYYPYFDYWGQGVMVTVSS VL: DIVLTQSPATLSVTPGESVSLSCRASQGISTSIHWYQQKSNESPRLLIRYASQSISRIPSRFSGSGSGTDFTLTINGVESEDLSVYYCQQSYNLPLTFGSGTKLEI | capable of recognizing | first extracellular loop | domain around the 68th amino acid from the N-terminal present in the first extracellular loop | incapable of recognizing | capable of recognizing |
| M11: mouse anti-CLDN-5 monoclonal antibody, IgG2b/K; VH SEQ ID NO: 3, VL SEQ ID NO: 4; example of antibody B (antibody, V domains shown, M11 VH; M11 VL) VH: QVQLKQSGPGLVQPSQSLSITCTVSGFSLIRYGVHWVRQSPGKGLEWLGVKWSGGSTDYNGAFKSRLSISKDNSKSQVFFKMNSLQADDTAIYYCARGLDGYYVPDVWGTGTSVTVS VL: DIVMTQSHKFMSTSVGDRVSITCKASQDVSTNVAWYQQKPGQSPTLLIYWASTRHTGVPDRFTGSGSGTDYTLTISSVQAEDLALYYCQQHYSTPLTFGAGTKLELRR | capable of recognizing | first extracellular loop | domain around the 68th amino acid from the N-terminal present in the first extracellular loop | incapable of recognizing | incapable of recognizing |
